The values below come from PMC12802937 (Nucleic Acids Research, 2026).

Common to all, as to conditions: both partners purified
Assay [1] deals with T1, RNF-MD S1i (E822K/R826E in RNF20 and K860E in RNF40) (human, UniProt Q5VTR2 321-900; O75150 327-926, E822K | R826E | K860E).
T1 construct: RNF20, human, residues 321-900; RNF40, human, residues 327-926; source: E. coli BL21 Rosetta (DE3), purified from the mixed cell extract (strep-tactin, dextrin, gel filtration); copies: 1 + 1
The assay is described as follows: SPR; RNF-MD immobilised on a CM5 chip, intein-WAC flown over; Biacore 8K, 25°C, 20 mM HEPES (pH 7.5), 200 mM sodium chloride, 0.02% Tween 20. (In general: SPR reads the build-up and loss of mass on a sensor chip optically.)

Assay [2] has as its target T2, RNF-MD complex (strep-SUMO-RNF20 residues 321–900 with MBP-RNF40 residues 327–926) (human, UniProt Q5VTR2 321-900; O75150 327-926).
T2 construct: RNF20, human, residues 321-900; RNF40, human, residues 327-926; heterodimer; also called RNF20/RNF40; WT; source: E. coli BL21 Rosetta (DE3), purified from the mixed cell extract (strep-tactin, dextrin, gel filtration); copies: 1 + 1
The assay is described as above.

The target of assay [3] is T3, RNF-MD S2i (E427K/K804E in RNF20 and E428K/E431K/E434K/R442E/E832K/E835K in RNF40) (human, UniProt Q5VTR2 321-900; O75150 327-926, E427K | K804E | E428K | E431K | E434K | R442E | E832K | E835K).
T3 construct: RNF20, human, residues 321-900; RNF40, human, residues 327-926; source: E. coli BL21 Rosetta (DE3), purified from the mixed cell extract (strep-tactin, dextrin, gel filtration); copies: 1 + 1
Described as above.

The target of assay [4] is T4, RNF-MD S3i (E783K/D786K in RNF20 and E449K/K818E in RNF40) (human, UniProt Q5VTR2 321-900; O75150 327-926, E783K | D786K | E449K | K818E).
T4 construct: RNF20, human, residues 321-900; RNF40, human, residues 327-926; source: E. coli BL21 Rosetta (DE3), purified from the mixed cell extract (strep-tactin, dextrin, gel filtration); copies: 1 + 1
Described as above.

Assay [5] deals with T5, Bre1-LR (Bre1 residues 227–700, LBD and RING domains), 6× histidine tag (budding yeast, UniProt Q07457 227-700).
T5 construct: two Bre1 polypeptides form the dimeric coiled-coils of the LBD in the crystal structure; also called WT; source: E. coli BL21 Rosetta (DE3), purified (Ni-NTA, heparin, gel filtration)
T5 sequence (looked up): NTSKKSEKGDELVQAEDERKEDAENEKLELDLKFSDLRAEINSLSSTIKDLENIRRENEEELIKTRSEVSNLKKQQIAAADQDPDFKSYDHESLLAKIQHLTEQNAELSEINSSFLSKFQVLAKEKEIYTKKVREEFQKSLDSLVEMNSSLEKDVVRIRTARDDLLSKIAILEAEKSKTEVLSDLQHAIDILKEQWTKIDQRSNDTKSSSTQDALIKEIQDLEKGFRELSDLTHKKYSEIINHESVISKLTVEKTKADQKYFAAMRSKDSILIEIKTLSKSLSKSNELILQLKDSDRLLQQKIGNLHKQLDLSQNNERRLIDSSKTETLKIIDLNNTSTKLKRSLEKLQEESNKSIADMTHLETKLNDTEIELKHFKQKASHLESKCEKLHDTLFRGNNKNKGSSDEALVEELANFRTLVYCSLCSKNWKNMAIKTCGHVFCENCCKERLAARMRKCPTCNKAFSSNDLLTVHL
The assay is described as follows: ITC; Lge1-CT (50–60 μM) injected into Bre1-LR (15 μM); 25°C, 20 mM TRIS (pH 7.5), 200 mM sodium chloride. In general terms: ITC needs no label: the signal is the heat of the interaction.

Assay [6] has as its target T5, Bre1-LR (Bre1 residues 227–700, LBD and …). The experiment in a line: SPR; Lge1-CT immobilised on a CM5 chip, Bre1-LR flown over; Biacore 8K, 25°C, 20 mM HEPES (pH 7.5), 200 mM sodium chloride, 0.02% Tween 20.

T2 sequence (Q5VTR2 321-900, chain 1 of 2): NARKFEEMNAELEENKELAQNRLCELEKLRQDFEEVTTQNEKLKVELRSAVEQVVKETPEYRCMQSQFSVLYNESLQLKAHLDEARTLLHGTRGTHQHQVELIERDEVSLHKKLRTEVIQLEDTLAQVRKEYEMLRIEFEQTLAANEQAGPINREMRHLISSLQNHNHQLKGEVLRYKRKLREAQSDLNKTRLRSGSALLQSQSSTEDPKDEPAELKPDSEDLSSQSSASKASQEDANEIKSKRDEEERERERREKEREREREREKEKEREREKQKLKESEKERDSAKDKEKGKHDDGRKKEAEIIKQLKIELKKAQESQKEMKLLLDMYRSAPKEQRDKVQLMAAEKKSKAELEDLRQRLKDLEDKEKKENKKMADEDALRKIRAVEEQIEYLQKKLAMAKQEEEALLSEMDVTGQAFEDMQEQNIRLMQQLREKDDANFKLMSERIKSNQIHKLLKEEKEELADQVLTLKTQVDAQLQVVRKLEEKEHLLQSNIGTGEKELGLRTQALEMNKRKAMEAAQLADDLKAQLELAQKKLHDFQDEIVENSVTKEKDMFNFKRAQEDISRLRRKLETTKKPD
T2 sequence (O75150 327-926, chain 2 of 2): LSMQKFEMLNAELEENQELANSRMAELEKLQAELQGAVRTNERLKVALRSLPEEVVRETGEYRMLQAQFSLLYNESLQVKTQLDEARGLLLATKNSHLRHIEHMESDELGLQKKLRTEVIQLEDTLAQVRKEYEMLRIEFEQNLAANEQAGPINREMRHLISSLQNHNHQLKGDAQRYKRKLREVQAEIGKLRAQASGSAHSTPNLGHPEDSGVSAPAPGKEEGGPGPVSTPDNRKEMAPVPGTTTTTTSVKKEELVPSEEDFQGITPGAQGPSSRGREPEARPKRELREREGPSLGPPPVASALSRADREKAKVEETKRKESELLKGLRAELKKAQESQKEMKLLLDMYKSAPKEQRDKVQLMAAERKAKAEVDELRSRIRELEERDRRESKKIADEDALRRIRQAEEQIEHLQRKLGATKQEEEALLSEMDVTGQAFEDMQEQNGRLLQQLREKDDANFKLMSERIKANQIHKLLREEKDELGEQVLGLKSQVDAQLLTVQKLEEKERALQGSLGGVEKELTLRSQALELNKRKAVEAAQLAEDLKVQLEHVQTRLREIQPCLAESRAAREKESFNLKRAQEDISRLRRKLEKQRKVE
T1 sequence (Q5VTR2 321-900 E822K/R826E, chain 1 of 2): as the sequence (Q5VTR2 321-900, chain 1 of 2) above, with E502K, R506E counted along it
T1 sequence (O75150 327-926 K860E, chain 2 of 2): as the sequence (O75150 327-926, chain 2 of 2) above, with K534E counted along it
T3 sequence (Q5VTR2 321-900 E427K/K804E, chain 1 of 2): as the sequence (Q5VTR2 321-900, chain 1 of 2) above, with E107K, K484E counted along it
T3 sequence (O75150 327-926 E428K/E431K/E434K/R442E/E832K/E835K, chain 2 of 2): as the sequence (O75150 327-926, chain 2 of 2) above, with E102K, E105K, E108K, R116E, E506K, E509K counted along it
T4 sequence (Q5VTR2 321-900 E783K/D786K, chain 1 of 2): as the sequence (Q5VTR2 321-900, chain 1 of 2) above, with E463K, D466K counted along it
T4 sequence (O75150 327-926 E449K/K818E, chain 2 of 2): as the sequence (O75150 327-926, chain 2 of 2) above, with E123K, K492E counted along it

B1: intein-CBD-tagged WAC-CT (WAC residues 570–647) (domain or fragment, human, UniProt Q9BTA9 570-647, looked up)
chain: HVQGWPADHAEKQASRLREEAHNMGTIHMSEICTELKNLRSLVRVCEIQATLREQRILFLRQQIKELEKLKNQNSFMV
notes: WAC, human, residues 570-647; purified on Ni-NTA although no histidine tag is named; also called intein-WAC; WT; source: purified (Ni-NTA, heparin, gel filtration)
As a reminder, the Kd is the free concentration of one partner at which half of the binding sites on the other are occupied at equilibrium, for simple one-to-one binding. One may read the koff as a measure of how fast the partners let go of each other. What is called kon is the rate constant with which the complex forms. Low values mean slower complex formation, high ones faster complex formation. Take B1: in assay [1], the Kd was found to be 539 nM, the koff was determined as 0.0168 s⁻¹ and the kon worked out at 31300 M⁻¹ s⁻¹. In assay [2], the Kd amounted to 504 nM, the koff stood at 0.0234 s⁻¹ and the kon amounted to 46400 M⁻¹ s⁻¹.

B2: intein-WAC S1 (D577K/E580K/R587E) (domain or fragment, human, UniProt Q9BTA9 570-647, looked up)
chain: HVQGWPAKHAKKQASRLEEEAHNMGTIHMSEICTELKNLRSLVRVCEIQATLREQRILFLRQQIKELEKLKNQNSFMV
notes: WAC, human, residues 570-647; source: purified (Ni-NTA, heparin, gel filtration)
In assay [2], B2 returned a Kd of 514 nM, a koff of 0.0165 s⁻¹ and a kon of 32000 M⁻¹ s⁻¹.

B3: intein-WAC S2 (E604K/K606E/R609E/R613E/E616K) (domain or fragment, human, UniProt Q9BTA9 570-647, looked up)
chain: HVQGWPADHAEKQASRLREEAHNMGTIHMSEICTKLENLESLVEVCKIQATLREQRILFLRQQIKELEKLKNQNSFMV
notes: as for B2
In the case of B3, in assay [3], the Kd was found to be 262 nM, the koff was determined as 0.00338 s⁻¹ and the kon was found to be 12900 M⁻¹ s⁻¹.

B4: intein-WAC S4 (R630E) (domain or fragment, human, UniProt Q9BTA9 570-647, looked up)
chain: HVQGWPADHAEKQASRLREEAHNMGTIHMSEICTELKNLRSLVRVCEIQATLREQRILFLEQQIKELEKLKNQNSFMV
notes: as for B2
Consider B4, for which, in assay [2], binding was put at a Kd of 1190 nM, the koff was determined as 0.0138 s⁻¹ and the kon was determined as 11600 M⁻¹ s⁻¹.

B5: intein-WAC S3 (R622E/E623K/R625E) (domain or fragment, human, UniProt Q9BTA9 570-647, looked up)
chain: HVQGWPADHAEKQASRLREEAHNMGTIHMSEICTELKNLRSLVRVCEIQATLEKQEILFLRQQIKELEKLKNQNSFMV
notes: as for B2
In assay [4], B5 had a Kd of 285 nM, an off-rate (koff) of 0.00308 s⁻¹ and a kon of 10800 M⁻¹ s⁻¹.

B6: intein-WAC S5 (E635K/E637K/K640E) (domain or fragment, human, UniProt Q9BTA9 570-647, looked up)
chain: HVQGWPADHAEKQASRLREEAHNMGTIHMSEICTELKNLRSLVRVCEIQATLREQRILFLRQQIKKLKKLENQNSFMV
notes: as for B2
In assay [2], B6 showed a Kd of 325 nM, a koff of 0.0143 s⁻¹ and a kon of 44100 M⁻¹ s⁻¹.

B7: Lge1-CT E301K/R305E (domain or fragment, budding yeast, UniProt Q02796 261-332, looked up)
chain: KNVKKTNNTESECEKAREVFKESDSIDSALEELNLKINSNKLELELLNNQCDKHALNIQLTQEKLDSLLLMQ
notes: Lge1, budding yeast, residues 261-332; source: E. coli BL21 Rosetta (DE3): cleared cell extract on chitin resin (pull-down); purified (chitin, heparin, gel filtration) for ITC and SPR
As usually defined, the stoichiometry N is the number of molecules, sites or subunits per partner or assembly. For the molecule B7, in assay [5], the Kd is 59.7 ± 38.2 nM, the dH is -19.4 ± 2.3 kcal/mol and the “stoichiometry N” value was 0.585 ± 0.022. Also, binding in assay [6] was put at a Kd of 81.7 nM.

B8: Lge1-CT L316N (domain or fragment, budding yeast, UniProt Q02796 261-332, looked up)
chain: KNVKKTNNTESECEKAREVFKESDSIDSALEELNLKINSNELELRLLNNQCDKHANNIQLTQEKLDSLLLMQ
notes: as for B7
For the molecule B8, in assay [5], the Kd worked out at 52.2 ± 4.9 nM, the dH is -65.4 ± 0.7 kcal/mol and the “stoichiometry N” value amounted to 0.293 ± 0.002. In assay [6], this molecule registered a Kd of 62.8 nM, a koff of 0.00527 s⁻¹ and a kon of 84000 M⁻¹ s⁻¹.

B9: Lge1-CT I318D (domain or fragment, budding yeast, UniProt Q02796 261-332, looked up)
chain: KNVKKTNNTESECEKAREVFKESDSIDSALEELNLKINSNELELRLLNNQCDKHALNDQLTQEKLDSLLLMQ
notes: as for B7
Take B9: in assay [5], the Kd is 21.1 ± 3.7 nM, the dH was -53.6 ± 0.8 kcal/mol and the “stoichiometry N” value was found to be 0.37 ± 0.022. For the same molecule, in assay [6], the Kd worked out at 20.7 nM, the koff stood at 0.00155 s⁻¹ and the kon was 74800 M⁻¹ s⁻¹.

B10: Lge1-CT K324E (domain or fragment, budding yeast, UniProt Q02796 261-332, looked up)
chain: KNVKKTNNTESECEKAREVFKESDSIDSALEELNLKINSNELELRLLNNQCDKHALNIQLTQEELDSLLLMQ
notes: as for B7
Regarding B10, in assay [5], binding was put at a Kd of 8.77 ± 2.09 nM, the dH is -48 ± 0.7 kcal/mol and the “stoichiometry N” value was 0.329 ± 0.001. In assay [6], this molecule came in with a Kd of 49.8 nM, a koff of 0.00509 s⁻¹ and a kon of 102000 M⁻¹ s⁻¹.

B11: Lge1-CT K313E/H314E (domain or fragment, budding yeast, UniProt Q02796 261-332, looked up)
chain: KNVKKTNNTESECEKAREVFKESDSIDSALEELNLKINSNELELRLLNNQCDEEALNIQLTQEKLDSLLLMQ
notes: as for B7
Turning to B11, in assay [5], the Kd worked out at 33.9 ± 8.4 nM, the dH is -43.6 ± 1.1 kcal/mol and the “stoichiometry N” value amounted to 0.392 ± 0.005. Further, in assay [6], the Kd is 51.8 nM, the koff came out at 0.00947 s⁻¹ and the kon amounted to 183000 M⁻¹ s⁻¹.

B12: Lge1-CT E303K (domain or fragment, budding yeast, UniProt Q02796 261-332, looked up)
chain: KNVKKTNNTESECEKAREVFKESDSIDSALEELNLKINSNELKLRLLNNQCDKHALNIQLTQEKLDSLLLMQ
notes: as for B7
On to B12, for which, in assay [5], the Kd is 132 ± 24 nM, the dH is -46.7 ± 2.2 kcal/mol and the “stoichiometry N” value came to 0.587 ± 0.011. In addition, in assay [6], the Kd stood at 63.8 nM.

B13: Lge1-CT L320N (domain or fragment, budding yeast, UniProt Q02796 261-332, looked up)
chain: KNVKKTNNTESECEKAREVFKESDSIDSALEELNLKINSNELELRLLNNQCDKHALNIQNTQEKLDSLLLMQ
notes: as for B7
With B13, in assay [5], the Kd amounted to 23.7 ± 3.8 nM, the dH was -49.9 ± 0.6 kcal/mol and the “stoichiometry N” value was 0.37 ± 0.002. Also, in assay [6], binding was put at a Kd of 50.8 nM, the koff came out at 0.00417 s⁻¹ and the kon was 82000 M⁻¹ s⁻¹.

B14: Lge1-CT L325N (domain or fragment, budding yeast, UniProt Q02796 261-332, looked up)
chain: KNVKKTNNTESECEKAREVFKESDSIDSALEELNLKINSNELELRLLNNQCDKHALNIQLTQEKNDSLLLMQ
notes: as for B7
Take B14: in assay [5], the Kd came out at 8.06 ± 1.52 nM, the dH was -61.2 ± 0.6 kcal/mol and the “stoichiometry N” value is 0.367 ± 0.001. Moreover, in assay [6], the Kd was 58.7 nM, the koff was 0.00328 s⁻¹ and the kon worked out at 55900 M⁻¹ s⁻¹.
